Experimental data published in patent US20250313602A1 (NANJING JSIAMA BIOPHARMACEUTICALS, published 2025).

How the values were obtained:
[1] = target: T1, human IL-2Rβ protein (10696-H05H, Sino Biological) (human, UniProt P14784 27-239); assay: ELISA, IL-2Rβ coated at 2 µg/ml; reference wild-type IL-2
T1 construct: Both are treated as the same protein; also called receptor IL-2Rβ protein; CD122
T1 sequence (looked up): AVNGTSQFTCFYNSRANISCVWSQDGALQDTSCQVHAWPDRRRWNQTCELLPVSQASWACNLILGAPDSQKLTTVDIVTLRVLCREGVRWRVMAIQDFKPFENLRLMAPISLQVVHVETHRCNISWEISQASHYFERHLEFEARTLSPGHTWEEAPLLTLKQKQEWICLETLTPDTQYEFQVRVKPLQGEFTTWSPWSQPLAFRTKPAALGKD

[2] = target: T2, human IL-2Rα protein (10165-H08H, Sino Biological) (human, UniProt P01589 22-213); assay: ELISA, IL-2Rα coated at 2 µg/ml
T2 construct: Both are treated as the same protein; also called receptor IL-2Rα protein; CD25
T2 sequence (looked up): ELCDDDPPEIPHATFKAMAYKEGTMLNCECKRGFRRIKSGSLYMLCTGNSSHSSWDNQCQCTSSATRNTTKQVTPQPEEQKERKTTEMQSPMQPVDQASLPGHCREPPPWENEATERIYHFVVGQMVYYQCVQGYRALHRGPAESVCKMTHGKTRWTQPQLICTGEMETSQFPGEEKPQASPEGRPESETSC

B1: IL-2-Fc fusion protein (Fc fusion)
chain: APTSSSTKKTQLQLEHLLLDLQMILNGINNYKNPKLTAMLTFKFYMPKKATELKHLQCLEEELKPLEEVLNLAQSKNFHFDPRDVVSNINVFVLELKGSETTFMCEYADETATIVEFLNRWITFCQSIISTLTGGGGSGGGGSGGGGSEPKSCDKTHTCPPCPAPEAAGGPSVFLFPPKPKDTLYITREPEVTCVVVDVSHEDPEVKFNWYVDGVEVHNAKTKPREEQYNSTYRVVSVLTVLHQDWLNGKEYKCKVSNKALPAPIEKTISKAKGQPREPQVYTLPPSREEMTKNQVSLTCLVKGFYPSDIAVEWESNGQPENNYKTTPPVLDSDGSFFLYSKLTVDKSRWQQGNVFSCSVMHEALHNHYTQKSLSLSPK
fold improvement of binding capacity compared with wild-type IL-2 [1]: 24 times | binding result [2]: binds
